According to US20050042213A1 (INSIGHT BIOPHARMACEUTICALS, published 2005):

T1: pro-heparanase (H60), purified recombinant human 60 kDa latent heparanase (human, UniProt Q9Y251 36-543)
T1 sequence: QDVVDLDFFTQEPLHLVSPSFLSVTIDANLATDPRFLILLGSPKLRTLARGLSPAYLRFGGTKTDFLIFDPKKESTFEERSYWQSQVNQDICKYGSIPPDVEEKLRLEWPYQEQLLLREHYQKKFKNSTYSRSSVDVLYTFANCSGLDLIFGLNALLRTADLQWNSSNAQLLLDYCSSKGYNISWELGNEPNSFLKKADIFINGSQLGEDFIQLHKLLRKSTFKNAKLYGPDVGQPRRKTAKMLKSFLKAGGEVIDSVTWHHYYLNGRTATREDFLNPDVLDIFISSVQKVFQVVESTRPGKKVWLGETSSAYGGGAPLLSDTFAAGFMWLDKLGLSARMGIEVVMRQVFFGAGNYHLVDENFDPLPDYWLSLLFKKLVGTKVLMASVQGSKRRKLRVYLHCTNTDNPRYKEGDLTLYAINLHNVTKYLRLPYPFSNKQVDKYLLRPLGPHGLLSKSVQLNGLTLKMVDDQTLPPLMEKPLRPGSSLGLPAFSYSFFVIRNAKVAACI

T2: active heparanase (H53), heterodimer of the 8 kDa and 45 kDa subunits (human, UniProt Q9Y251 36-109; Q9Y251 158-543)
T2 sequence 1: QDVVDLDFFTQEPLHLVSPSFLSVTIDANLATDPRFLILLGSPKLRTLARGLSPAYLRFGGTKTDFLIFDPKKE
T2 sequence 2: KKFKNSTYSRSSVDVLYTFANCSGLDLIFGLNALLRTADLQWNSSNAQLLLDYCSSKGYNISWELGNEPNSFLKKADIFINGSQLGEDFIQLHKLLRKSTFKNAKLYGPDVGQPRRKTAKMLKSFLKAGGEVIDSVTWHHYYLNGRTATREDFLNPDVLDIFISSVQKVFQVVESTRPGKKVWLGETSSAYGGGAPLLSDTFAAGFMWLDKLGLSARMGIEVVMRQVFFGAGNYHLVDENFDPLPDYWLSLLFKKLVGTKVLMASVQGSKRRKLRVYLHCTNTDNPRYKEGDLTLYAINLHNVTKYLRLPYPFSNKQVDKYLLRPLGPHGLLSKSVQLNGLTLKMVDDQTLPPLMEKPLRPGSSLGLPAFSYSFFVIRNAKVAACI


target: T1, pro-heparanase (H60), purified …; assay: cell-based or functional assay

IC50 H60 (µM), H60 activation in the cell-based assay [µM]	Binder
65	PRFLILL [P8-11]

target: T2, active heparanase (H53), heterodimer of …; assay: cell-based or functional assay

Binder	IC50 H53 [µM]
CPAYLRFGGTKTDFLIFDPLLE [Pep-7]	7
RFLILL [P8-18]	5
PRFLILLGSPKLR [P8-4]	2.3

Results, then the binder that gave them:

IC50 H53 [µM]	Binder
18	LRTLARGLSPAYL [P8-5]
8	FLILLGSPKLRTL [P8-8]
6	DPRFLILL [P8-16]
1.4	PRFLILL [P8-11]

target: T2, active heparanase (H53), heterodimer of …; assay: cell-based or functional assay; remark: another data set of the same source

IC50 Heparanase [µM]	Binder
21	CTWHHYYLNGRTATR [Pep-25]
